Experimental data reported in patent publication US20090214583A1 (GOVERNMENT OF THE UNITED STATES OF AMERICA AS REPRESENTED …, published 2009).

Molecular target: HLA-DRβ1*13 (human)
Assay: cell-based or functional assay

B1: Peptide 53 (peptide)
peptide: KQIINMWQEIGKAMYA
Question: For B1, which “proliferation of KT9 cells” value is on record?
Answer: The value was ≤ 2 fold.
